Test results: PMC4176187

Molecular target: 40S ribosomal subunits purified from rabbit reticulocyte lysate (rabbit) (UniProt G1U0Q2)
Experiment: protein transfer assay

Row | percent of the protein transferred from scAlu RNA to 40S [%] | Substance
1 | 41 | human recombinant SRP9/14 protein heterodimer, wild type (from UniProt P49458 1-86; P37108 1-136) (complex)
2 | 16 | human recombinant SRP9/14A5 (basic pentapeptide K96-K100 of SRP14 mutated) (from UniProt P49458 1-86; P37108 1-136) (complex)
